Measurements reported in PMC7440919, “Cryo-EM structure of the lysosomal chloride-proton exchanger CLC-7 in complex with OSTM1” (eLife, 2020).

B1: human osteopetrosis-associated transmembrane protein 1 (OSTM1) (natural protein)
chain: ALPFGSSPHRVFHDLLSEQQLLEVEDLSLSLLQGGGLGPLSLPPDLPDLDPECRELLLDFANSSAELTGCLVRSARPVRLCQTCYPLFQQVVSKMDNISRAAGNTSESQSCARSLLMADRMQIVVILSEFFNTTWQEANCANCLTNNSEELSNSTVYFLNLFNHTLTCFEHNLQGNAHSLLQTKNYSEVCKNCREAYKTLSSLYSEMQKMNELENKAEPGTHLCIDVEDAMNITRKLWSRTFNCSVPCSDTVPVIAVSVFILFLPVVFYLSSFLHSEQKKRKLILPKRLKSSTSFANIQENSN
modifications: N-linked carbohydrate at asparagines 93, 128, 163, 184, 194, 263 and 274; five disulfide bonds in the luminal domain
notes: OSTM1, human, single-pass transmembrane protein; synthesized gene (SynBio); C-terminal cytoplasmic domain disordered in the structure; Printed residue numbers appear to count on the precursor; also called hsOSTM1; beta-subunit of CLC-7; not shown: mVenus, C-terminal, cleaved
B2: human CLC-7 (natural protein, UniProt P51798 1-805, looked up)
chain: MANVSKKVSWSGRDRDDEEAAPLLRRTARPGGGTPLLNGAGPGAARQSPRSALFRVGHMSSVELDDELLDPDMDPPHPFPKEIPHNEKLLSLKYESLDYDNSENQLFLEEERRINHTAFRTVEIKRWVICALIGILTGLVACFIDIVVENLAGLKYRVIKGNIDKFTEKGGLSFSLLLWATLNAAFVLVGSVIVAFIEPVAAGSGIPQIKCFLNGVKIPHVVRLKTLVIKVSGVILSVVGGLAVGKEGPMIHSGSVIAAGISQGRSTSLKRDFKIFEYFRRDTEKRDFVSAGAAAGVSAAFGAPVGGVLFSLEEGASFWNQFLTWRIFFASMISTFTLNFVLSIYHGNMWDLSSPGLINFGRFDSEKMAYTIHEIPVFIAMGVVGGVLGAVFNALNYWLTMFRIRYIHRPCLQVIEAVLVAAVTATVAFVLIYSSRDCQPLQGGSMSYPLQLFCADGEYNSMAAAFFNTPEKSVVSLFHDPPGSYNPLTLGLFTLVYFFLACWTYGLTVSAGVFIPSLLIGAAWGRLFGISLSYLTGAAIWADPGKYALMGAAAQLGGIVRMTLSLTVIMMEATSNVTYGFPIMLVLMTAKIVGDVFIEGLYDMHIQLQSVPFLHWEAPVTSHSLTAREVMSTPVTCLRRREKVGVIVDVLSDTASNHNGFPVVEHADDTQPARLQGLILRSQLIVLLKHKVFVERSNLGLVQRRLRLKDFRDAYPRFPPIQSIHVSQDERECTMDLSEFMNPSPYTVPQEASLPRVFKLFRALGLRHLVVVDNRNQVVGLVTRKDLARYRLGKRGLEELSLAQT
notes: CLC-7 (CLCN7) chloride-proton exchanger, human; synthesized gene (SynBio); called full-length in the results for the human CLC-7 expressed alone; the methods describe only the mCerulean construct used for the complex with OSTM1; also called hsCLC-7; hsCLCN7; not shown: mCerulean, C-terminal, cleaved

Legend:
[1] = biological target: chicken CLC-7 (Gallus gallus (chicken)); test: cryo-EM structure; purified ggCLC-7 at 2 mg/ml in LMNG, 50 mM Tris-HCl pH 8, 150 mM KCl, 2 mM DTT; C2 symmetry imposed
[2] = biological target: B2; test: cryo-EM structure; purified co-expressed hsCLC-7/OSTM1 complex at 2 mg/ml, supplemented with 1 mM ATP and 0.1% LMNG; 50 mM Tris-HCl pH 8, 150 mM KCl, 2 mM DTT; C2 symmetry imposed, local refinements; conditions: both partners purified
[3] = biological target: the molecule itself; test: as above

| Molecule | stoichiometry N [1] | binding result [2] | stoichiometry N [3] |
| --- | --- | --- | --- |
| chicken CLC-7 (natural protein) | 2 |  |  |
| B1 |  | binds | 2 |
| B2 |  |  | 2 |
